Assay results reported in patent US20240376185A1 (SMIVET B V, published 2024).
Where two headings read alike, the source gives them in different places.

What was measured:
human serum albumin [1] = molecular target: T1, human serum albumin (human, UniProt P02768 25-609); assay: ELISA, E. coli supernatant
T1 construct: mature; also called human Alb

human serum albumin [2] = molecular target: T1, human serum albumin; assay: ELISA, coated albumin, E. coli supernatant
[3] = molecular target: dog IgG (chrompure dog IgG) (dog)
[4] = molecular target: dog IgG (chrompure dog IgG) (dog); remark: listed apart in the source
[5] = molecular target: T2, tetanus neurotoxin (TeNT), authentic tetanus holotoxin (Clostridium tetani, UniProt P04958 2-1315); assay: GT1b-TeNT inhibition ELISA
[6] = molecular target: T2, tetanus neurotoxin (TeNT), authentic …; assay: GT1b-TeNT inhibition ELISA; remark: listed apart in the source
[7] = molecular target: T2, tetanus neurotoxin (TeNT), authentic …; assay: ELISA: directly coated TeNT, anti-his6 PO
[8] = molecular target: T2, tetanus neurotoxin (TeNT), authentic …; assay: ELISA: directly coated TeNT, anti-his6 PO; remark: listed apart in the source
[9] = molecular target: T2, tetanus neurotoxin (TeNT), authentic …; assay: ELISA: directly coated TeNT, goat anti-llama Ig PO
[10] = molecular target: T2, tetanus neurotoxin (TeNT), authentic …; assay: ELISA: directly coated TeNT, goat anti-llama Ig PO; remark: listed apart in the source
[11] = molecular target: T2, tetanus neurotoxin (TeNT), authentic …; assay: bridging ELISA: coated TeNT, SDA, biotinylated TeNT, StrepPO (bivalent binding)
[12] = molecular target: T2, tetanus neurotoxin (TeNT), authentic …; assay: as above; remark: listed apart in the source
[13] = molecular target: T2, tetanus neurotoxin (TeNT), authentic …; assay: BLI (Octet Red96); avidity (bivalent for TeNT); format for this SDA not told
Horse albumin = molecular target: T3, Horse albumin (horse, UniProt P35747 25-607); assay: BLI (Octet Red96), SDA on Ni-NTA sensor, albumin as analyte
T3 construct: also called Equine albumin; Equine Alb

Dog albumin = molecular target: T4, Dog albumin (dog, UniProt P49822 25-608); assay: as above
T4 construct: also called Canine albumin; Canine Alb

Cat albumin = molecular target: T5, Cat albumin (cat, UniProt P49064 25-608); assay: as above
T5 construct: also called Feline albumin; Feline Alb

[14] = molecular target: T6, Tetanus neurotoxin (TeNT), authentic tetanus holotoxin (Clostridium tetani, UniProt P04958 2-1315); assay: BLI (Octet Red96), biotinylated SDA on SA sensor, TeNT as analyte
[15] = molecular target: T6, Tetanus neurotoxin (TeNT), authentic …

B1: SVA04 (VHH, not shown: large carriers)
VHH: QVQLQQSGGGLVQAGGSLRLACAASGRTLSSYVMGWFRQAPGKEREFVAAISWSGGSTYYADSVKGRFTISRDNAKNTVYLQMNSLKPEDTAVYYCAATLRGSNRYYSGRVYDYWGQGTQVTVSS
What does the source list for B1?
binding result (human serum albumin [1]): no binding; absorbance at 450 nm (human serum albumin [2]): 0.085 A450

B2: SVT16-L123Q-GS2-SVG13M4-H6 (bispecific antibody)
chain: QVQLQESGGGSVQAGDSLRLSCAASGRTISNYAMGWFRQAPGKQREFVAAISRSDNTYYTDSVKGRFTISRDNAKNTLYLQMNSLKPEETAVYYCAADPNLMYESKWKYRALEAWGQGTQVTVSSGGGGSGGGSEVQLVESGGGLVQPGGSLRLSCEASGFTFDDYGMSWVRQAPGKGLEWVSSLTPNGGSTYYADSVKGRFTISRDNAKNTLYLQMNSLKPEDTALYYCAKNSYYGAMDYWGQGTQVTVSSHHHHHH
Which results are given for B2?
maximal absorbance value [3]: 0.69 A450; Effective SDA Concentration at A450 0.2 [4]: 127 ng/mL

B3: SVT06-SVT16-L123Q-GS2-SVG13M4-H6 (bispecific antibody)
chain: QVQLQESGGGSVQAGGSLRLSCTASELSYDDYTIAWFRRAAGEGRVEDGEGVASITKSYDRAYDNKINYGHSVKGRFTISRDNAKNTVYLQMTDLLPSDTAVYYCALDITPPGGVGASLTEGFLFDYWGQGTQVTVSSQVQLQESGGGSVQAGDSLRLSCAASGRTISNYAMGWFRQAPGKQREFVAAISRSDNTYYTDSVKGRFTISRDNAKNTLYLQMNSLKPEETAVYYCAADPNLMYESKWKYRALEAWGQGTQVTVSSGGGGSGGGSEVQLVESGGGLVQPGGSLRLSCEASGFTFDDYGMSWVRQAPGKGLEWVSSLTPNGGSTYYADSVKGRFTISRDNAKNTLYLQMNSLKPEDTALYYCAKNSYYGAMDYWGQGTQVTVSSHHHHHH
notes: also called pRL501
How did the maximal absorbance value [3] turn out when B3 was run?
Its maximal absorbance value is 0.78 A450.

What about the “Effective SDA Concentration at A450 0.2” value [4] of the same binder?
The value was 134 ng/mL.

B4: SVG06L (VHH)
VHH: QVQLQESGGALVQPGGSLRLSCAASGFPFSAYDMTWVRQAPGQGLEWVSTIHKSGGITTYADSVKGRFTISRDNAKNTLYLQMNNLESEDTAVYYCAKALRAHNSDYVGRNALGSWGEGTLVTVSS
Which “minimal absorbance value (GT1b-TeNT inhibition)” value [5] does the source give for B4 here?
Its value is 0.8 A450.

What about the “Effective SDA Concentration at A450 0.56” value [6] of the same binder?
Its value is over 1000 ng/mL.

And the maximal absorbance value [3]?
The maximal absorbance value was 0.56 A450.

What about the “Effective SDA Concentration at A450 0.2” value [4] of the same binder?
Its value is 164 ng/mL.

And the maximal absorbance value [7]?
Its maximal absorbance value is 0.05 A450.

What about the “Effective SDA Concentration at A450 0.15” value [8] of the same binder?
The value was over 1000 ng/mL.

Does B4 bind [8]?
Result: no binding (tested: 1000 ng/ml (A450 0.15 not reached))

What about the maximal absorbance value [9] of the same binder?
Its maximal absorbance value is 0.07 A450.

And the “Effective SDA Concentration at A450 0.15” value [10]?
Its value is over 1000 ng/mL.

And the maximal absorbance value [11]?
The maximal absorbance value was 0.14 A450.

And the “Effective SDA Concentration at A450 0.3” value [12]?
The value was over 1000 ng/mL.

B5: SVT06-GS3-SVT02-GS2-SVG06M4-H6 (bispecific antibody)
chain: QVQLQESGGGSVQAGGSLRLSCTASELSYDDYTIAWFRRAAGEGRVEDGEGVASITKSYDRAYDNKINYGHSVKGRFTISRDNAKNTVYLQMTDLLPSDTAVYYCALDITPPGGVGASLTEGFLFDYWGQGTQVTVSSGGGGSGGGGSGGGGSQVQLQQSGGGSVQAGGSLRLSCVGPQRTFSTYGMGWFRQAPGKEREFVAGINYKGDTTYYADSVKGRFTISRDNAKNTLYLQMDSLKPEDRAVYQCARKGGLGGDYRDAGQYRYWGQGTQVTVSSGGGGSGGGSEVQLVESGGALVQPGGSLRLSCAASGFPFSAYDMTWVRQAPGQGLEWVSTIHKSGGITTYADSVKGRFTISRDNAKNTLYLQMNNLESEDTAVYYCAKALRAHNSDYVGRNALGSWGQGTQVTVSSHHHHHH
What does the source list for B5?
Kd [13]: 130 pM; koff [13]: 4.27e-05 s⁻¹; kon [13]: 329000 M⁻¹ s⁻¹

B6: SVA06L (VHH)
VHH: QVQLQESGGRLVQAEDSLRLSCAASGRTFVSYDMGWFRQAPGKEREFVAAINWRGYTTDYVDSVKGRFFISRDIAKSTVYLQMNNLKPEDTAVYYCAARQMSGSSRYSPPGRVGYDFWGQGTQVTVSS
What does the source list for B6?
Kd (Horse albumin): 13500 pM; koff (Horse albumin): 0.00977 s⁻¹; kon (Horse albumin): 726000 M⁻¹ s⁻¹; Kd (Dog albumin): 3160 pM; koff (Dog albumin): 0.00224 s⁻¹; kon (Dog albumin): 711000 M⁻¹ s⁻¹; Kd (Cat albumin): 1200 pM; koff (Cat albumin): 0.000878 s⁻¹; kon (Cat albumin): 729000 M⁻¹ s⁻¹

B7: SVT06L (VHH)
VHH: QVQLQESGGGSVQAGGSLRLSCTASELSYDDYTIAWFRRAAGEGRVEDGEGVASITKSYDRAYDNKINYGHSVKGRFTISRDNAKNTVYLQMTDLLPSDTAVYYCALDITPPGGVGASLTEGFLFDYWGQGTQVTVSS
B7 was tested. Which Kd [14] did it give?
Its Kd is 224 pM.

And the koff [14]?
The koff was 0.000113 s⁻¹.

And the kon [14]?
Its kon is 503000 M⁻¹ s⁻¹.

B8: SVT15L (VHH)
VHH: QVQLQESGGGLVQTGGSLRLSCRASGRAFANYHFGWFRQAPGKDREFVASISWKGGSTYYANFALGRFTSSVDRAESSVYLQMSGLTPEDTATYYCAAHDGGDWNYHTGMDYWGKGILVTVSS
How did the Kd [14] turn out when B8 was run?
The Kd was 772 pM.

What about the koff [14] of the same binder?
Its koff is 8.57e-05 s⁻¹.

And the kon [14]?
The kon was 111000 M⁻¹ s⁻¹.

B9: SVT15-3FW4M-GS2-SVG13M4-H6 (bispecific antibody)
chain: QVQLQESGGGLVQTGGSLRLSCRASGRAFANYHFGWFRQAPGKDREFVASISWKGGSTYYANFALGRFTSSVDRAESSVYLQMSGLTPEDTATYYCAAHDGGDWNYHTGMDYWGQGTQVTVSSGGGGSGGGSEVQLVESGGGLVQPGGSLRLSCEASGFTFDDYGMSWVRQAPGKGLEWVSSLTPNGGSTYYADSVKGRFTISRDNAKNTLYLQMNSLKPEDTALYYCAKNSYYGAMDYWGQGTQVTVSSHHHHHH
B9 was tested. Which Kd [15] did it give?
Its Kd is 20.9 pM.

What about the koff [15] of the same binder?
Its koff is 8.15e-06 s⁻¹.

What about the kon [15] of the same binder?
The kon was 390000 M⁻¹ s⁻¹.
